Measured values published in US20250270339A1 (Alector, published 2025).
Substitutions are numbered along the chain they refer to.

T1: huTfR Apical Domain-Avi-His (human, biotin on the Avi tag (BirA) where captured on streptavidin)
T1 construct: also called huTfR apical Avi-His; hTfR Apical
T1 chain: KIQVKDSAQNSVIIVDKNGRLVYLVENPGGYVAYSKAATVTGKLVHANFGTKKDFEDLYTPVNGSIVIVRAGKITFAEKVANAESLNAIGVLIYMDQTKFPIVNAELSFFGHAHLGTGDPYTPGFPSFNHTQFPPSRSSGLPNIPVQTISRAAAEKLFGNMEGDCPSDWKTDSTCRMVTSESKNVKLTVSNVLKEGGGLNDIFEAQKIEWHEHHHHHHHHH

B1: TfR7 (mouse hybridoma antibody) (antibody, V domains shown)
VH: DVQLQESGPGLVKPSQSLSLTCTVTGYSITSDYAWNWLRQFPGNKLEWMGYISYSGYSRHNPSLKSRISITRDTSKNQFFLQLNSVTSEDTATYYCARGDWDFDYWGQGTTLTVSS
VL: DIVMTQSQKFMSTSVGDRVSVTCKASQNVLTNVAWYQQKPGHSPKALIYSSSSRNSGVPDRFTGSGSGTDFTLTISNVQSEDLAEYFCQQYNTYPYTFGGGTKLEIK
notes: mouse IgG in hybridoma supernatant
B2: TfR10 (mouse hybridoma antibody) (antibody, V domains shown)
VH: QVQLQQSGPELVKPGASVKMSCKASGYTFTSYYIHWVKQRPGQGLEWIGWIYPGDGNTNYNEKFKGKTTLTADKSSSTAYMLLSSLTSEDSAIYFCARDGSIPFAYWGQGTLVTVSA
VL: DIVMTQSPSSLTVTAGEKVTMSCKSSQSLLNSGNQKNYLTWYQQKPGQPPKLLIYWASTRESGVPDRFTGSGSGTDFTLTISSVQAEDLAVYYCQNDYSYPLTFGAGTKLELK
notes: as for B1
B3: TfR24 (mouse hybridoma antibody) (antibody, V domains shown)
VH: B2 VH with A16T, G56D, N59H, K63N, G100Y, S101Y, I102G, P103R
VL: B2 VL with K18R, Y42F, L79V, S99G
notes: as for B1
B4: TfR11 (mouse hybridoma antibody) (antibody, V domains shown)
VH: EVQLQQSGTVLARPGASVKMSCKASGYSFTSYWMHWVKQRPGQGLEWIGAIFPGNIDTIYNQKFKDKAKLTAVTSASTAYMELSSLTNEDSAVYFCTRLYYDYVWGAGTTVTVSS
VL: DIKMTQSPSSMYASLGERVTLTCKASQDINSYLSWFQQKPGKSPKTLIYHVNRLVDGVPSRFSGSGSGQDYSLTISSLEYEDMGIYYCLQYDEFPYTFGGGTKLEIK
notes: as for B1
B5: TfR16 (mouse hybridoma antibody) (antibody, V domains shown)
VH: EVQLQQSGTVLARPGASVKMSCKTSGYSFSSYWMHWVKQRPGQGLEWIGTIYPGNSDTIYNQNFKGKAKLTAVTSASTAYMELSSLTNEDSAVYYCSTIYYFSNWGQGTTLTVSS
VL: B4 VL with S10P, Y12F, L21I, H50R, V51A, V55L, E79D, M83V, E93V
notes: as for B1
B6: TfR6 (mouse hybridoma antibody) (antibody, V domains shown)
VH: DVQLVESGGGLVQPGGSRKLSCAASGFTFSSFGMHWVRQAPEKGLEWVAYISSGSSAIYYADTVKGRFTVSRDNPKNTLFLQMTSLRSEDTAIYYCATSYVYDPPWFAYWGQGTLVTVSA
VL: DIVMTQSHKFMSTSVGDRVSITCKASQDVSTAVAWYQQKPGQSPKLLIYWASTRPTGVPDRFTGSGSGTDYTLTISSVQAEDLALYSCQQHFSTPWTFGGGTKLEIK
notes: as for B1
B7: TfR9 (mouse hybridoma antibody) (antibody, V domains shown)
VH: EVQLQQSGPELVKPGASVKISCKTSGYTFTEYAMHWVKQSHGKSLEWIGGINPNDGGTSYNQKFKGKATLTVDKSSSTAYMELRSLTSEDSAVYYCSSQRWLLRGGDYWGQGTTLTVSS
VL: not shown
notes: as for B1
B8: TfR13 (mouse hybridoma antibody) (antibody, V domains shown)
VH: DVKLVESGGGLVKPGGSLKLSCAASGFTFSSYTMSWVRQTPEKRLEWVATISSGGSYTYFPDSVKGRFTISRDNAKNTLYLQMSSLKSEDTAIYYCTRAHYYAYDYWGQGTTLTVSS
VL: DILLTQSPAILSVSPGERVSFSCRASQSIGTSIHWYQQRTNGSPRLLIKYASGSISGIPSRFSGSGSGTDFTLSINSVESEDIADYYCQQSNSWPTSTFGAGTKLELK
notes: as for B1
B9: TfR15 (mouse hybridoma antibody) (antibody, V domains shown)
VH: QVQLQQPGSELVRPGASVKLSCKASGYTFTSYWMHWVKQRPGQGLEWIGNIYPGSGSSNYDEKFKSKATLTVDTSSSTAYMQLNSLTSEDSAVYYCTRSSYYGNFDTMDNWGQGTSVTVSS
VL: QIVLTQSPAIMSASPGEKVTMTCSASSSIRYMNWYQQKPVTSPKRWIYDTSTLASGVPARFSGSGSGTSYSLTISSMEAEDAATYYCHQRSSYPWTFGGGTKLEIK
notes: as for B1
B10: TfR22 (mouse hybridoma antibody) (antibody, V domains shown)
VH: DVQLQESGPGLVKPSQSLSLTCTVTGYSITSDYAWNWIRQFPGNKLEWMGYISYSGSTRYNPSLKSRISITRDTSKNQFFLQLNSVTTEDTATYYCTSWGYRYLEDYWGQGTSVTVSA
VL: B9 VL with K18R, R30S, Y31S, N33H, V40G, R45K, T52K
notes: as for B1
B11: TfR23 (mouse hybridoma antibody) (antibody, V domains shown)
VH: B10 VH with R59S, A118S
VL: B9 VL with K18R, R30S, Y31S, M32L, N33H, V40G, R45K, T52K, T73A
notes: as for B1
B12: TfR28 (mouse hybridoma antibody) (antibody, V domains shown)
VH: B10 VH with R59S, K65R, T97A, S98I, W99R, L104E, S113T, V114L, A118S
VL: B9 VL with G16R, R30S, Y31S, N33H, V40G, T52K
notes: as for B1
B13: TfR17 (mouse hybridoma antibody) (antibody, V domains shown)
VH: B10 VH with R59S, T97A, A118S
VL: B9 VL with R30S, Y31S, N33H, V40G, Y48S, T52K, V57I, E78A, T84A
notes: as for B1
B14: TfR27 (mouse hybridoma antibody) (antibody, V domains shown)
VH: B9 VH with S55T, S58T, N84S, N110Y
VL: B9 VL with V3F, K18R, V40G, T52E, S62T, S92G
notes: as for B1
B15: TfR18 (mouse hybridoma antibody) (antibody, V domains shown)
VH: QVQLQQSGAELVRPGTSVKVSCKASGYAFTNYLIEWIKQRPGQGLEWIGVINPGNNDTTYNEMFKAKTTLTADKSSNTAYMQLSSLTSDDSAVYFCARRSPYFDYWGQGTTLTVSS
VL: SIVMTQTPKFLLVSAGDRVTITCKASQSVSNDVAWYQQKPGQSPKLLIYYASNRYTGVPDRFTGSGYGTDFTFTISTVQAEDLAVYFCHQDYSSPTFGGGTKLEIK
notes: as for B1

These binders were tested against T2, Full length Mouse TfR on CHO cells (mouse, UniProt Q62351 1-763) (assay: FACS, CHO+muTfR).
T2 construct: also called CHO + muTfR
Description: (§1) A total of 1536 anti-TfR hybridoma supernatants were initially screened for their ability to differentially bind CHO cells overexpressing human or mouse TfR cells compared to CHO parental cells by FACS. Overexpressing cells were harvested, washed and labeled with Pacific Blue, FITC and Pacific Orange dyes (ThermoFisher) to create uniquely barcoded cell populations. Barcoded cells (5×10⁴ of each cell population) were aliquoted into 96-well U-bottom plates and incubated with 50 μl of hybridoma cell culture supernatant or […] of commercially available purified mouse anti-human TfR monoclonal antibody (Sigma Aldrich, Cat #SAB4700515) and rat anti-mouse TfR antibody (Invitrogen, Waltham, MA, Cat #R17217) on ice for 30 minutes. After this primary incubation, the supernatants were removed via centrifugation, the cells were washed twice with 175 μl of ice-cold FACS buffer (PBS+1% FBS+2 mM EDTA), and the cells were then further incubated on ice for 20 minutes with anti-mouse IgG Fc-allophycocyanin (APC) or anti-rat IgG Fc-APC (Jackson Labs, Cat #115-136-071 and Cat #112-136-071, respectively) (diluted 1:1000). Following this secondary antibody incubation, the cells were again washed twice with ice-cold FACS buffer and resuspended in a final volume of 50 μl of FACS buffer. Binding intensity on cells was analyzed using the FACS Canto system (BD Biosciences), and the ratio of APC Mean Fluorescence Intensity (MFI) on each barcoded cell population was determined for each anti-TfR hybridoma supernatant tested.

T2 sequence (Q62351 whole entry): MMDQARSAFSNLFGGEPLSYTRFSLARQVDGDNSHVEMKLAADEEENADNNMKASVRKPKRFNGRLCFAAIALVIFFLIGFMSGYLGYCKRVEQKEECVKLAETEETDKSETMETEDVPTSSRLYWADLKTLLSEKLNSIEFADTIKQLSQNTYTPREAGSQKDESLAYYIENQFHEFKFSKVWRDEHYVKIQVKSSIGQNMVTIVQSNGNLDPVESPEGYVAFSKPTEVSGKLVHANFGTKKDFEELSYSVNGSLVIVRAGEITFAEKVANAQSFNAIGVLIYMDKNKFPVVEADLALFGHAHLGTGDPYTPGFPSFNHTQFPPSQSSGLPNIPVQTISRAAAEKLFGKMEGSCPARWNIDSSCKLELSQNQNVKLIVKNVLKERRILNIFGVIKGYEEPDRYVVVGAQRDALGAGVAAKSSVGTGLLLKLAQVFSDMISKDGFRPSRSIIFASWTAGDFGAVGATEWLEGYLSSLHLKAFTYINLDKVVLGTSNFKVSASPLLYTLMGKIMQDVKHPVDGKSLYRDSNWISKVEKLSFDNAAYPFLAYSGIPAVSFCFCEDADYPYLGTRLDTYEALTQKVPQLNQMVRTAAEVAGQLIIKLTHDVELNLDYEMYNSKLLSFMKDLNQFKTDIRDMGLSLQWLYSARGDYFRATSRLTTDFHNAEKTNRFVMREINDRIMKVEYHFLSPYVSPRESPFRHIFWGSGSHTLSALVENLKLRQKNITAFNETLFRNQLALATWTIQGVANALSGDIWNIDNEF

Row | binding result | Binder
1 | no binding | B1
2 | no binding | B2
3 | no binding | B3
4 | no binding | B4
5 | no binding | B5
6 | no binding | B6
7 | no binding | B7
8 | no binding | B8
9 | no binding | B9
10 | no binding | B10
11 | no binding | B11
12 | no binding | B12
13 | no binding | B13
14 | no binding | B14
15 | no binding | B15

The binders below were run against T3, Full length human TfR on CHO cells (human, UniProt P02786 1-760) (assay: FACS MFI, supernatant).
T3 construct: also called CHO + huTfR; CHO + hTfR
Description: as §1

T3 sequence (P02786 whole entry): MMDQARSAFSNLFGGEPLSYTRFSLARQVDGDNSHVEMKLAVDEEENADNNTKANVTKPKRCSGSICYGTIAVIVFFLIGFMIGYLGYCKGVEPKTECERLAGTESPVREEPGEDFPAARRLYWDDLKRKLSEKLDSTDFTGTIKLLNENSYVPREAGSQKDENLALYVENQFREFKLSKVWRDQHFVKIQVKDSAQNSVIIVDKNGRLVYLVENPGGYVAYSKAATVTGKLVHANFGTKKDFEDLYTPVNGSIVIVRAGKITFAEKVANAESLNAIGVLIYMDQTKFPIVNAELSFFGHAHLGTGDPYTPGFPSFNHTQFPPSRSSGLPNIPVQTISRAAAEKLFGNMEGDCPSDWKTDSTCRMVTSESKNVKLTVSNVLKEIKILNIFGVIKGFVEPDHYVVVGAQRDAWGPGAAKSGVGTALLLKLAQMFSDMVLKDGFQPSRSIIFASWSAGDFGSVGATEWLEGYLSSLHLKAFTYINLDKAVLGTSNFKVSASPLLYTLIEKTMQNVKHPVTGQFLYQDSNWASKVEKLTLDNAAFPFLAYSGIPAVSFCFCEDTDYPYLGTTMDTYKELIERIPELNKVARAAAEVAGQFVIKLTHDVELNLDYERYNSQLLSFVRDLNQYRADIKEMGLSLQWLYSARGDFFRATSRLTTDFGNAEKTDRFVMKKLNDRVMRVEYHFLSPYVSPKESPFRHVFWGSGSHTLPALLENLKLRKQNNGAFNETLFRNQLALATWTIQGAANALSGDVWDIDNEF

Row | fold over parental (CHO WT) | Binder
16 | 87 fold | B1
17 | 389 fold | B2
18 | 370 fold | B3
19 | 290 fold | B4
20 | 534 fold | B5
21 | 451 fold | B6
22 | 203 fold | B7
23 | 392 fold | B8
24 | 119 fold | B9
25 | 290 fold | B10
26 | 279 fold | B11
27 | 157 fold | B12
28 | 73 fold | B13
29 | 279 fold | B14
30 | 75 fold | B15

The binders below were run against T2, Full length Mouse TfR on CHO cells (assay: FACS MFI, supernatant).
Description: as §1

Row | fold over parental (CHO WT) | Binder
31 | 1 fold | B1
32 | 1 fold | B2
33 | 1 fold | B3
34 | 1 fold | B4
35 | 1 fold | B5
36 | 1 fold | B6
37 | 1 fold | B7
38 | 1 fold | B8
39 | 1 fold | B9
40 | 1 fold | B10
41 | 1 fold | B11
42 | 1 fold | B12
43 | 1 fold | B13
44 | 1 fold | B14
45 | 1 fold | B15

Molecular target: T1, huTfR Apical Domain-Avi-His
Assay: ELISA OD450, supernatant
Description: Hybridoma culture supernatants from 319 hybridomas obtained as described above were screened for their ability to bind Avi-His-tagged huTfR ECD, huTfR apical domain, and muTfR ECD (as described in Example 1) as compared to binding to an irrelevant Avi-His-tagged control protein. Briefly, 96-well polystyrene plates were coated with 5 μg/ml of streptavidin (Thermo Fisher, Cat #PI21125) in coating buffer (0.05M carbonate buffer, pH 9.6, Sigma, Cat #C3041) overnight at 4° C. Coated plates were then blocked with ELISA diluent (PBS+0.5% BSA+0.05% Tween20) for one hour. Blocking buffer was removed and Avi-His-tagged human TfR, human TfR apical domain, mouse TfR and an irrelevant Avi-His-tagged protein were added at 1 μg/ml in ELISA diluent and captured for 1 hour at room temperature. After washing three times with 300 μl of PBST (PBS+0.05% Tween20, Thermo 28352), the hybridoma cell culture supernatants were added (50 μl/well) to each well. After 30 minutes of incubation at room temperature, the plates were washed three times with 300 μl of PBST. Anti-mouse IgG Fc-HRP or anti-rat IgG Fc-HRP (Jackson Immunoresearch, Cat #115-035-071 and 112-036-071, respectively) secondary antibodies were diluted 1:5000 in ELISA diluent, added to each well at 50 μl/well, and incubated for 30 minutes at room temperature with shaking. After a final set of washes (3×300 μl in PBST), 50 μl/well of BioFx TMB substrate (Surmodics, Cat #TMBW-1000-01) was added to the wells. The reaction was then quenched after 5-10 mins with 50 μl/well of 2N sulfuric acid. The plates were read for absorbance at 450 nm on a SpectraMax M5 (Molecular Devices, Sunnyvale, CA) using SoftMax Pro software.

Row | ratio over irrelevant protein | Binder
46 | 48 fold | B1
47 | 35 fold | B2
48 | 31 fold | B3
49 | 39 fold | B4
50 | 18 fold | B5
51 | 37 fold | B6
52 | 10 fold | B7
53 | 22 fold | B8
54 | 34 fold | B9
55 | 33 fold | B10
56 | 31 fold | B11
57 | 30 fold | B12
58 | 26 fold | B13
59 | 34 fold | B14
60 | 32 fold | B15
